Numbered stars: 1 amine (or outer) side, 2 acyl side, 3 side chain; on linkers, the order of the positions; unused ones are H or OH. Bridge positions count the residues as written; N and C are the ends. Square brackets hold non-standard residues; d marks the D form. Side chains are listed from the residue outwards. Ends that are not written are not given here. * marks the point of attachment. C18 diacid = O=C(O)CCCCCCCCCCCCCCCCC(=O)*; γGlu = O=C(O)[C@H](CCC(=O)[*:2])N[*:1]; Aib = CC(C)(N)C(=O)O
T1: human calcitonin receptor (human, UniProt P30988 25-474)
T1 sequence (looked up): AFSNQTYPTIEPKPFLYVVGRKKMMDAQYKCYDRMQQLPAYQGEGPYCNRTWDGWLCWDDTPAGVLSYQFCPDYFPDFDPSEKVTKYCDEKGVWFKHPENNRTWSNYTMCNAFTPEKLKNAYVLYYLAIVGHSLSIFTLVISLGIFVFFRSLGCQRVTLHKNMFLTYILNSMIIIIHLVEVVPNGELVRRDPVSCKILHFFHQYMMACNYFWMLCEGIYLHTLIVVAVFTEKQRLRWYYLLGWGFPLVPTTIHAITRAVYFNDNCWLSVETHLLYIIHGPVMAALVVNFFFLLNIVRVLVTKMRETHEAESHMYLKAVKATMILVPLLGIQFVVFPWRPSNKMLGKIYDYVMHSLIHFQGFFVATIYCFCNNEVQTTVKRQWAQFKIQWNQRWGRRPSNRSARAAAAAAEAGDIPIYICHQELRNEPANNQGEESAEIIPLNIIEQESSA

T2: human amylin receptor (calcitonin receptor co-expressed with receptor activity modifying protein, RAMP3) (human, UniProt P30988 25-474; O60896 24-148)
T2 sequence (looked up) 1: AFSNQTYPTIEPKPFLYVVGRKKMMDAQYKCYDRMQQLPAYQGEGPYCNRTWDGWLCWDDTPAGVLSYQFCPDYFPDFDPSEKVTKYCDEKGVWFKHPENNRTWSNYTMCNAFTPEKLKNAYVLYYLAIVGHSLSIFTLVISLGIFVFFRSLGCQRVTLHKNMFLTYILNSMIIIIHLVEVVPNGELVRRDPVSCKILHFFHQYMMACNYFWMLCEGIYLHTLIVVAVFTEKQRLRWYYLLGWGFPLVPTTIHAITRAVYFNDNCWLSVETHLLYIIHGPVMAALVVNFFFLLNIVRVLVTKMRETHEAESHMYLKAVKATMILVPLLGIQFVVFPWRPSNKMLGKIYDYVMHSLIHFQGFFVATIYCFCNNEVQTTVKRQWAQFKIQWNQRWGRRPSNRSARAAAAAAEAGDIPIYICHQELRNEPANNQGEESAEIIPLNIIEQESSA
T2 sequence (looked up) 2: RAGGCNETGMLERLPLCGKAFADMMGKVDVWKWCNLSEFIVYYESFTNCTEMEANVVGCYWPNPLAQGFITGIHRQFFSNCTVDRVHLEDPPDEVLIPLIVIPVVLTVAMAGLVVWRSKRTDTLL


Tests used:
[1] = target: T1, human calcitonin receptor; assay: cell-based or functional assay
[2] = target: T2, human amylin receptor (calcitonin …); assay: cell-based or functional assay

EC50 (cAMP production) [1]	EC50 (cAMP production) [2]	Ratio (EC50 hCTR / EC50 hAMYR3) [2]	Binder
2.97 nM	407 pM	7	K([γGlu-C18 diacid])KCNTATCATQRLANFLVHSS[Aib]NFGPILPPT[Aib]VGSNTY-NH2 (disulfide 3-8; N-terminus assumed; SMILES CC[C@H](C)[C@H](NC(=O)[C@@H]1CCCN1C(=O)CNC(=O)[C@H](Cc1ccccc1)NC(=O)[C@H](CC(N)=O)NC(=O)C(C)(C)NC(=O)[C@H](CO)NC(=O)[C@H](CO)NC(=O)[C@H](Cc1c[nH]cn1)NC(=O)[C@@H](NC(=O)[C@H](CC(C)C)NC(=O)[C@H](Cc1ccccc1)NC(=O)[C@H](CC(N)=O)NC(=O)[C@H](C)NC(=O)[C@H](CC(C)C)NC(=O)[C@H](CCCNC(=N)N)NC(=O)[C@H](CCC(N)=O)NC(=O)[C@@H](NC(=O)[C@H](C)NC(=O)[C@@H]1CSSC[C@H](NC(=O)[C@H](CCCCN)NC(=O)[C@@H](N)CCCCNC(=O)CC[C@H](NC(=O)CCCCCCCCCCCCCCCCC(=O)O)C(=O)O)C(=O)N[C@@H](CC(N)=O)C(=O)N[C@@H]([C@@H](C)O)C(=O)N[C@@H](C)C(=O)N[C@@H]([C@@H](C)O)C(=O)N1)[C@@H](C)O)C(C)C)C(=O)N[C@@H](CC(C)C)C(=O)N1CCC[C@H]1C(=O)N1CCC[C@H]1C(=O)N[C@H](C(=O)NC(C)(C)C(=O)N[C@H](C(=O)NCC(=O)N[C@@H](CO)C(=O)N[C@@H](CC(N)=O)C(=O)N[C@H](C(=O)N[C@@H](Cc1ccc(O)cc1)C(N)=O)[C@@H](C)O)C(C)C)[C@@H](C)O) [Peptide 80 (SEQ ID NO: 80)]
4.8 nM	659 pM	7	K([γGlu-C18 diacid])KCNTATCATQRLANFLVHSS[Aib]NFGPI[Aib]PPTNVGSNTY-NH2 (disulfide 3-8; N-terminus assumed; SMILES CC[C@H](C)[C@H](NC(=O)[C@@H]1CCCN1C(=O)CNC(=O)[C@H](Cc1ccccc1)NC(=O)[C@H](CC(N)=O)NC(=O)C(C)(C)NC(=O)[C@H](CO)NC(=O)[C@H](CO)NC(=O)[C@H](Cc1c[nH]cn1)NC(=O)[C@@H](NC(=O)[C@H](CC(C)C)NC(=O)[C@H](Cc1ccccc1)NC(=O)[C@H](CC(N)=O)NC(=O)[C@H](C)NC(=O)[C@H](CC(C)C)NC(=O)[C@H](CCCNC(=N)N)NC(=O)[C@H](CCC(N)=O)NC(=O)[C@@H](NC(=O)[C@H](C)NC(=O)[C@@H]1CSSC[C@H](NC(=O)[C@H](CCCCN)NC(=O)[C@@H](N)CCCCNC(=O)CC[C@H](NC(=O)CCCCCCCCCCCCCCCCC(=O)O)C(=O)O)C(=O)N[C@@H](CC(N)=O)C(=O)N[C@@H]([C@@H](C)O)C(=O)N[C@@H](C)C(=O)N[C@@H]([C@@H](C)O)C(=O)N1)[C@@H](C)O)C(C)C)C(=O)NC(C)(C)C(=O)N1CCC[C@H]1C(=O)N1CCC[C@H]1C(=O)N[C@H](C(=O)N[C@@H](CC(N)=O)C(=O)N[C@H](C(=O)NCC(=O)N[C@@H](CO)C(=O)N[C@@H](CC(N)=O)C(=O)N[C@H](C(=O)N[C@@H](Cc1ccc(O)cc1)C(N)=O)[C@@H](C)O)C(C)C)[C@@H](C)O) [Peptide 79 (SEQ ID NO: 79)]
3.15 nM	288 pM	11	K([γGlu-C18 diacid])KCNTATCATQRLANFLVHSS[Aib]NFGP[Aib]LPPTNVGSNTY-NH2 (disulfide 3-8; N-terminus assumed; SMILES CC(C)C[C@H](NC(=O)[C@H](CCCNC(=N)N)NC(=O)[C@H](CCC(N)=O)NC(=O)[C@@H](NC(=O)[C@H](C)NC(=O)[C@@H]1CSSC[C@H](NC(=O)[C@H](CCCCN)NC(=O)[C@@H](N)CCCCNC(=O)CC[C@H](NC(=O)CCCCCCCCCCCCCCCCC(=O)O)C(=O)O)C(=O)N[C@@H](CC(N)=O)C(=O)N[C@@H]([C@@H](C)O)C(=O)N[C@@H](C)C(=O)N[C@@H]([C@@H](C)O)C(=O)N1)[C@@H](C)O)C(=O)N[C@@H](C)C(=O)N[C@@H](CC(N)=O)C(=O)N[C@@H](Cc1ccccc1)C(=O)N[C@@H](CC(C)C)C(=O)N[C@H](C(=O)N[C@@H](Cc1c[nH]cn1)C(=O)N[C@@H](CO)C(=O)N[C@@H](CO)C(=O)NC(C)(C)C(=O)N[C@@H](CC(N)=O)C(=O)N[C@@H](Cc1ccccc1)C(=O)NCC(=O)N1CCC[C@H]1C(=O)NC(C)(C)C(=O)N[C@@H](CC(C)C)C(=O)N1CCC[C@H]1C(=O)N1CCC[C@H]1C(=O)N[C@H](C(=O)N[C@@H](CC(N)=O)C(=O)N[C@H](C(=O)NCC(=O)N[C@@H](CO)C(=O)N[C@@H](CC(N)=O)C(=O)N[C@H](C(=O)N[C@@H](Cc1ccc(O)cc1)C(N)=O)[C@@H](C)O)C(C)C)[C@@H](C)O)C(C)C) [Peptide 78 (SEQ ID NO: 78)]

The remaining lines, values behind:

Binder	EC50 (cAMP production) [1]	EC50 (cAMP production) [2]	Ratio (EC50 hCTR / EC50 hAMYR3) [2]
K([γGlu-γGlu-C18 diacid])CNTATCATQRLANFLRHSS[Aib]NFGPILPPTRVGSNTY-NH2 (disulfide 2-7; N-terminus assumed; SMILES CC[C@H](C)[C@H](NC(=O)[C@@H]1CCCN1C(=O)CNC(=O)[C@H](Cc1ccccc1)NC(=O)[C@H](CC(N)=O)NC(=O)C(C)(C)NC(=O)[C@H](CO)NC(=O)[C@H](CO)NC(=O)[C@H](Cc1c[nH]cn1)NC(=O)[C@H](CCCNC(=N)N)NC(=O)[C@H](CC(C)C)NC(=O)[C@H](Cc1ccccc1)NC(=O)[C@H](CC(N)=O)NC(=O)[C@H](C)NC(=O)[C@H](CC(C)C)NC(=O)[C@H](CCCNC(=N)N)NC(=O)[C@H](CCC(N)=O)NC(=O)[C@@H](NC(=O)[C@H](C)NC(=O)[C@@H]1CSSC[C@H](NC(=O)[C@@H](N)CCCCNC(=O)CC[C@H](NC(=O)CC[C@H](NC(=O)CCCCCCCCCCCCCCCCC(=O)O)C(=O)O)C(=O)O)C(=O)N[C@@H](CC(N)=O)C(=O)N[C@@H]([C@@H](C)O)C(=O)N[C@@H](C)C(=O)N[C@@H]([C@@H](C)O)C(=O)N1)[C@@H](C)O)C(=O)N[C@@H](CC(C)C)C(=O)N1CCC[C@H]1C(=O)N1CCC[C@H]1C(=O)N[C@H](C(=O)N[C@@H](CCCNC(=N)N)C(=O)N[C@H](C(=O)NCC(=O)N[C@@H](CO)C(=O)N[C@@H](CC(N)=O)C(=O)N[C@H](C(=O)N[C@@H](Cc1ccc(O)cc1)C(N)=O)[C@@H](C)O)C(C)C)[C@@H](C)O) [Peptide 77 (SEQ ID NO: 77)]	2.52 nM	231 pM	11
K([γGlu-γGlu-C18 diacid])CNTATCATQRLANFLRHSS[Aib]NFGPILPPTNVGSNTY-NH2 (disulfide 2-7; N-terminus assumed; SMILES CC[C@H](C)[C@H](NC(=O)[C@@H]1CCCN1C(=O)CNC(=O)[C@H](Cc1ccccc1)NC(=O)[C@H](CC(N)=O)NC(=O)C(C)(C)NC(=O)[C@H](CO)NC(=O)[C@H](CO)NC(=O)[C@H](Cc1c[nH]cn1)NC(=O)[C@H](CCCNC(=N)N)NC(=O)[C@H](CC(C)C)NC(=O)[C@H](Cc1ccccc1)NC(=O)[C@H](CC(N)=O)NC(=O)[C@H](C)NC(=O)[C@H](CC(C)C)NC(=O)[C@H](CCCNC(=N)N)NC(=O)[C@H](CCC(N)=O)NC(=O)[C@@H](NC(=O)[C@H](C)NC(=O)[C@@H]1CSSC[C@H](NC(=O)[C@@H](N)CCCCNC(=O)CC[C@H](NC(=O)CC[C@H](NC(=O)CCCCCCCCCCCCCCCCC(=O)O)C(=O)O)C(=O)O)C(=O)N[C@@H](CC(N)=O)C(=O)N[C@@H]([C@@H](C)O)C(=O)N[C@@H](C)C(=O)N[C@@H]([C@@H](C)O)C(=O)N1)[C@@H](C)O)C(=O)N[C@@H](CC(C)C)C(=O)N1CCC[C@H]1C(=O)N1CCC[C@H]1C(=O)N[C@H](C(=O)N[C@@H](CC(N)=O)C(=O)N[C@H](C(=O)NCC(=O)N[C@@H](CO)C(=O)N[C@@H](CC(N)=O)C(=O)N[C@H](C(=O)N[C@@H](Cc1ccc(O)cc1)C(N)=O)[C@@H](C)O)C(C)C)[C@@H](C)O) [Peptide 75 (SEQ ID NO: 75)]	16 nM	161 pM	99
K([γGlu-C18 diacid])CNTATCATQRLANFLRHSS[Aib]NFGPILPPTRVGSNTY-NH2 (disulfide 2-7; N-terminus assumed; SMILES CC[C@H](C)[C@H](NC(=O)[C@@H]1CCCN1C(=O)CNC(=O)[C@H](Cc1ccccc1)NC(=O)[C@H](CC(N)=O)NC(=O)C(C)(C)NC(=O)[C@H](CO)NC(=O)[C@H](CO)NC(=O)[C@H](Cc1c[nH]cn1)NC(=O)[C@H](CCCNC(=N)N)NC(=O)[C@H](CC(C)C)NC(=O)[C@H](Cc1ccccc1)NC(=O)[C@H](CC(N)=O)NC(=O)[C@H](C)NC(=O)[C@H](CC(C)C)NC(=O)[C@H](CCCNC(=N)N)NC(=O)[C@H](CCC(N)=O)NC(=O)[C@@H](NC(=O)[C@H](C)NC(=O)[C@@H]1CSSC[C@H](NC(=O)[C@@H](N)CCCCNC(=O)CC[C@H](NC(=O)CCCCCCCCCCCCCCCCC(=O)O)C(=O)O)C(=O)N[C@@H](CC(N)=O)C(=O)N[C@@H]([C@@H](C)O)C(=O)N[C@@H](C)C(=O)N[C@@H]([C@@H](C)O)C(=O)N1)[C@@H](C)O)C(=O)N[C@@H](CC(C)C)C(=O)N1CCC[C@H]1C(=O)N1CCC[C@H]1C(=O)N[C@H](C(=O)N[C@@H](CCCNC(=N)N)C(=O)N[C@H](C(=O)NCC(=O)N[C@@H](CO)C(=O)N[C@@H](CC(N)=O)C(=O)N[C@H](C(=O)N[C@@H](Cc1ccc(O)cc1)C(N)=O)[C@@H](C)O)C(C)C)[C@@H](C)O) [Peptide 76 (SEQ ID NO: 76)]	22.3 nM	209 pM	107
